Results reported in patent US20110126299A1 (published 2011).

Molecular target: T1, λ2^315 Ig L-chain (idiotype, Id) peptide on I-E^d (mouse)
T1 peptide: ALWFRNHFVFG
Assay: activation reporter or marker

binding result: recognises
B1: 4B2A1 TCR (TCR, V domains shown)
Valpha: QQKVQQSPESLIVPEGAMTSLNCTFSDSASQYFAWYRQQSGKAPKALMSIFSNGEKEEGRFTIHLNKASLHFSLHIRDSQPSDSALYLCAVRGPNTGNYKYVFGAGTRLKVIA
Vbeta: EAAVTQSPRNKVAVTGGKVTLSCNQTNNHNNMYWYRQDTGHGLRLIHYSYGAGSTEKGDIPDGYKASRPSQENFSLILELATPSQTSVYFCASGDAGQGHSDYTFGSGTRLLVI
